Source: the supplement of paper PMC10567573

B1: DUSP5 (parent)
chain: YSEYPECCVDVKPISQEKIESERA

Variants of: B1
Test: protein stability index of a GFP-peptide fusion (GPS, HEK-293T) (PSI 1-6); higher = more stable
Details: c terminus: a fixed tail appended
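Also: lentivirally expressed fusions sorted by FACS into six bins by GFP to DsRed ratio, PSI derived from sequencing read proportions per bin multiplied by bin number.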

Variant	protein stability index
YSEYPECDVDVKPISQEKIESERA [C8D]	4.84
YSEYPECQVDVKPISQEKIESERA [C8Q]	4.58
YSEYPECYVDVKPISQEKIESERA [C8Y]	2.15
YSEYPECAVDVKPISQEKIESERA [C8A]	4.56
YSEYPECTVDVKPISQEKIESERA [C8T]	5.41
YSEYPECNVDVKPISQEKIESERA [C8N]	5.64
YSEYPECPVDVKPISQEKIESERA [C8P]	5.6
YSEYPECMVDVKPISQEKIESERA [C8M]	4.59
YSEYPECIVDVKPISQEKIESERA [C8I]	3.77
YSEYPECGVDVKPISQEKIESERA [C8G]	5.25
YSEYPECVVDVKPISQEKIESERA [C8V]	4.35
YSEYPECSVDVKPISQEKIESERA [C8S]	4.66
YSEYPECHVDVKPISQEKIESERA [C8H]	5.2
YSEYPECWVDVKPISQEKIESERA [C8W]	1.32
YSEYPECRVDVKPISQEKIESERA [C8R]	5.24
YSEYPECEVDVKPISQEKIESERA [C8E]	4.85
YSEYPECKVDVKPISQEKIESERA [C8K]	4.87
YSEYPECLVDVKPISQEKIESERA [C8L]	4.07
YSEYPECCVTVKPISQEKIESERA [D10T]	2.85
YSEYPECCVPVKPISQEKIESERA [D10P]	3.96
YSEYPECCVWVKPISQEKIESERA [D10W]	1.74
YSEYPECCVRVKPISQEKIESERA [D10R]	2.84
YSEYPECCVIVKPISQEKIESERA [D10I]	2.6
YSEYPECCVNVKPISQEKIESERA [D10N]	2.18

Variant	protein stability index
YSEYPECCVEVKPISQEKIESERA [D10E]	4.66
YSEYPECCVFVKPISQEKIESERA [D10F]	2.47
YSEYPECCVHVKPISQEKIESERA [D10H]	3.15
YSEYPECCVSVKPISQEKIESERA [D10S]	3.88
YSEYPECCVCVKPISQEKIESERA [D10C]	2.69
YSEYPECCVMVKPISQEKIESERA [D10M]	2.91
YSEYPECCVKVKPISQEKIESERA [D10K]	3.71
YSEYPECCVAVKPISQEKIESERA [D10A]	3.56
YSEYPECCVLVKPISQEKIESERA [D10L]	2.98
YSEYPECCVYVKPISQEKIESERA [D10Y]	3.04
YSEYPECCSDVKPISQEKIESERA [V9S]	4.93
YSEYPECCIDVKPISQEKIESERA [V9I]	4.35
YSEYPECCKDVKPISQEKIESERA [V9K]	4.53
YSEYPECCQDVKPISQEKIESERA [V9Q]	4.47
YSEYPECCEDVKPISQEKIESERA [V9E]	5.56
YSEYPECCRDVKPISQEKIESERA [V9R]	2.94
YSEYPECCWDVKPISQEKIESERA [V9W]	3.39
YSEYPECCMDVKPISQEKIESERA [V9M]	3.77
YSEYPECCYDVKPISQEKIESERA [V9Y]	4.04
YSEYPECCTDVKPISQEKIESERA [V9T]	4.4
YSEYPECCFDVKPISQEKIESERA [V9F]	3.76
YSEYPECCCDVKPISQEKIESERA [V9C]	4.12
YSEYPECCPDVKPISQEKIESERA [V9P]	4.24
YSEYPECCHDVKPISQEKIESERA [V9H]	4.39

Variant	protein stability index
YSEYPECCADVKPISQEKIESERA [V9A]	4.26
YSEYPECCDDVKPISQEKIESERA [V9D]	4.12
YSEYPECCNDVKPISQEKIESERA [V9N]	5.56
YSEYPECCGDVKPISQEKIESERA [V9G]	4.4
YSEYPECCLDVKPISQEKIESERA [V9L]	4.7
YSEYPEMCVDVKPISQEKIESERA [C7M]	3.81
YSEYPENCVDVKPISQEKIESERA [C7N]	4.64
YSEYPEQCVDVKPISQEKIESERA [C7Q]	5.35
YSEYPEVCVDVKPISQEKIESERA [C7V]	3.95
YSEYPEPCVDVKPISQEKIESERA [C7P]	5.4
YSEYPETCVDVKPISQEKIESERA [C7T]	4.81
YSEYPELCVDVKPISQEKIESERA [C7L]	3.75
YSEYPESCVDVKPISQEKIESERA [C7S]	5.47
YSEYPEWCVDVKPISQEKIESERA [C7W]	2.95
YSEYPEYCVDVKPISQEKIESERA [C7Y]	2.02
YSEYPERCVDVKPISQEKIESERA [C7R]	4.26
YSEYPECCVDPKPISQEKIESERA [V11P]	3.61
YSEYPECCVDDKPISQEKIESERA [V11D]	5.42
YSEYPECCVDWKPISQEKIESERA [V11W]	4.09
YSEYPECCVDTKPISQEKIESERA [V11T]	3.95
YSEYPECCVDSKPISQEKIESERA [V11S]	4.24
YSEYPECCVDAKPISQEKIESERA [V11A]	4.23
YSEYPECCVDCKPISQEKIESERA [V11C]	3.38
YSEYPECCVDMKPISQEKIESERA [V11M]	4.09

Variant	protein stability index
YSEYPECCVDEKPISQEKIESERA [V11E]	4.25
YSEYPECCVDKKPISQEKIESERA [V11K]	4.17
YSEYPECCVDQKPISQEKIESERA [V11Q]	5
YSEYPECCVDNKPISQEKIESERA [V11N]	4.51
YSEYPECCVDLKPISQEKIESERA [V11L]	3.84
YSEYPECCVDFKPISQEKIESERA [V11F]	3.53
YSEYPECCVDYKPISQEKIESERA [V11Y]	3.4
YSEYPECCVDRKPISQEKIESERA [V11R]	3.45
YSEYPECCVDVHPISQEKIESERA [K12H]	4.95
YSEYPECCVDVNPISQEKIESERA [K12N]	4.07
YSEYPECCVDVFPISQEKIESERA [K12F]	3.83
YSEYPECCVDVDPISQEKIESERA [K12D]	4.46
YSEYPECCVDVSPISQEKIESERA [K12S]	3.02
YSEYPECCVDVAPISQEKIESERA [K12A]	4.47
YSEYPECCVDVCPISQEKIESERA [K12C]	3.96
YSEYPECCVDVRPISQEKIESERA [K12R]	4.25
YSEYPECCVDVPPISQEKIESERA [K12P]	4.32
YSEYPECCVDVVPISQEKIESERA [K12V]	4.14
YSEYPECCVDVTPISQEKIESERA [K12T]	4.07
YSEYPECCVDVQPISQEKIESERA [K12Q]	4.77
YSEYPECCVDVIPISQEKIESERA [K12I]	3.72
YSEYPECCVDVMPISQEKIESERA [K12M]	4.18
